Results reported in US20220041725A1 (MacroGenics, published 2022).

Target: T1, HER-2 (UniProt P04626 23-652, limits assumed)
T1 construct: also called HER2/neu; erbB-2
Assay: SPR (BIAcore 1000), HER-2 amine-coupled on chip, antibody injected at 6.25-200 nM

Question: How did the koff turn out when ch4D5 (antibody) was run?
Answer: 6.3e-06 s⁻¹

Question: And the kon?
Answer: 110000 M⁻¹ s⁻¹

B1: ch4D5-wild-type Fc (antibody, human IgG1, kappa, V domains shown)
VH: QVQLQQSGPELVKPGASLKLSCTASGFNIKDTYIHWVKQRPEQGLEWIGRIYPTNGYTRYDPKFQDKATITADTSSNTAYLQVSRLTSEDTAVYYCSRWGGDGFYAMDYWGQGASVTVSS
VL: DIVMTQSHKFMSTSVGDRVSITCKASQDVNTAVAWYQQKPGHSPKLLIYSASFRYTGVPDRFTGSRSGTDFTFTISSVQAEDLAVYYCQQHYTTPPTFGGGTKVEIKR
notes: Chimeric IgG with wild-type human IgG1 Fc; also called ch4D5-FcWT (wild-type Fc); Chimeric 4D5 Antibody having a wild-type Fc
Question: For B1, which koff is on record?
Answer: ~3.2e-07 s⁻¹

Question: And the kon?
Answer: 170000 M⁻¹ s⁻¹
